Data on 6 molecules can be found in patent US20240279341A1 (Alector, published 2024).

Assay [1] deals with T1, human MerTK on M2c-differentiated human macrophages (human, UniProt Q12866 21-999).
T1 sequence: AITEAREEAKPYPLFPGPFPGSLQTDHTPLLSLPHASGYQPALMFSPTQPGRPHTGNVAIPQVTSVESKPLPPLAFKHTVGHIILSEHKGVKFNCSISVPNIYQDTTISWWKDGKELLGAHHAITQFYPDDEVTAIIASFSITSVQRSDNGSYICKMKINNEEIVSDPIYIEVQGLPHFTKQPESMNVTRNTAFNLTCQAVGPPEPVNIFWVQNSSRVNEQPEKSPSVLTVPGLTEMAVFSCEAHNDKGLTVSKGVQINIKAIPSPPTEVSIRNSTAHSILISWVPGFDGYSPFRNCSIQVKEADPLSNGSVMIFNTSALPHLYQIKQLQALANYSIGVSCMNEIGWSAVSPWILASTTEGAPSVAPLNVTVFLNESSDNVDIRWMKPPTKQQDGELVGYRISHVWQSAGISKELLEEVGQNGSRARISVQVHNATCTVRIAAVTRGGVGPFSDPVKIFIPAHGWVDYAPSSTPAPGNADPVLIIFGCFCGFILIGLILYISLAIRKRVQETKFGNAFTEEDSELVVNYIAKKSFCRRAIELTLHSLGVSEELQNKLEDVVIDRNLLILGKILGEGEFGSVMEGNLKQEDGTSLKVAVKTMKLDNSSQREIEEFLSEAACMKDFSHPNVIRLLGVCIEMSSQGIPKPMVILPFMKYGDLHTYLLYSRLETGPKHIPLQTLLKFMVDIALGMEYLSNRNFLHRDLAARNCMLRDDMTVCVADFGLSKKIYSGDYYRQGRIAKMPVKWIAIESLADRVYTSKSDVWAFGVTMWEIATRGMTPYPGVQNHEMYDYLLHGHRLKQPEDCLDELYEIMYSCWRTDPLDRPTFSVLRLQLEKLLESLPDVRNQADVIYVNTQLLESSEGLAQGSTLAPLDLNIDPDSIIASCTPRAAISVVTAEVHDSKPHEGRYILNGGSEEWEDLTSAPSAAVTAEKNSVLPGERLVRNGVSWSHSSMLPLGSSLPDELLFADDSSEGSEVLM
Kind of assay: cell-based or functional assay.

The target of assay [2] is T2, recombinant human MerTK extracellular domain (human, UniProt Q12866 21-505).
T2 construct: also called huMerTK; not shown: PolyHis tag or TEVS/Thrombin/murine IgG2a Fc tag (a DDDDK-tagged commercial protein is also mentioned); which form was t
T2 sequence: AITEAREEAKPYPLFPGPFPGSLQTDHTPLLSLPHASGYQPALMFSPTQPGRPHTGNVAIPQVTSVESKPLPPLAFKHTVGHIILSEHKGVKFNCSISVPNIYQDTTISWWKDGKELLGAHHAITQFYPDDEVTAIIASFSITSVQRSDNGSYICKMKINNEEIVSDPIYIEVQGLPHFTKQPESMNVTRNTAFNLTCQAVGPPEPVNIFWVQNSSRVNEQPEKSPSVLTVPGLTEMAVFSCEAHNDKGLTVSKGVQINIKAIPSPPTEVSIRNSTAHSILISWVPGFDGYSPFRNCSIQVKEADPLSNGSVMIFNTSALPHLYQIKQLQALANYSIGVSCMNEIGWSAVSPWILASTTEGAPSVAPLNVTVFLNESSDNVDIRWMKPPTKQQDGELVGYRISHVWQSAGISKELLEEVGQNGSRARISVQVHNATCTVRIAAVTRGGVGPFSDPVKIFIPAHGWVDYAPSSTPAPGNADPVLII
Kind of assay: SPR (Carterra LSA), antibody immobilized, MerTK ECD as analyte; estimate, fits not ideal for a 1:1 model. The protocol:
(§1) Binding kinetics of bispecific anti-MerTK:anti-PDL1 antibodies of the present disclosure to human, cyno, and murine MerTK were evaluated using a Carterra LSA instrument. […] A HC30 sensor chip (Carterra) was activated using the single channel flow cell with a 7-minute injection of a 1:1:1 mixture of 100 mM MES pH 5.5, 100 mM sulfo-NHS, 400 mM EDC (all reconstituted in MES pH 5.5; 100 μl of each mixed in vial immediately before running assay). After switching to the multi-channel array flow cell, the antibodies were injected over the activated chip in a 96-spot array for 15 minutes. A duplicate injection of the antibodies on a second block of the chip was spotted as before. The remaining unconjugated active groups on the chip were then blocked by injecting 1M Ethanolamine pH 8.5 (Carterra) for 7 minutes using the single channel flow cell.
(§2) After priming with running buffer (HBS-TE, Carterra) with 0.5 mg/ml BSA (Sigma), the immobilized anti-MerTK antibodies were tested for their ability to bind to several forms of recombinant MerTK extracellular domain, including that of human, cynomolgus, and mouse orthologs as described above. Estimates of affinity were generated by injecting each analyte over the entire antibody array using the single channel flow cell. […] Dissociation was followed for 300 seconds before regenerating after each injection with 2×30 seconds of 10 mM Glycine pH2.5. Three buffer blanks were run between each series (one species per series). After all concentrations of all three species of MerTK were injected, a duplicate set of injections was performed, so that each concentration for all three species was injected in widely spaced duplicates. Data were processed and analyzed using NextGenKIT high-throughput kinetics analysis software (Carterra).

Assay [3] deals with T3, recombinant cynomolgus MerTK extracellular domain (cynomolgus monkey, UniProt Q12866 21-505 (human entry)).
T3 construct: also called cynoMerTK; cyno MerTK; not shown: PolyHis tag or TEVS/Thrombin/murine IgG2a Fc tag
T3 chain: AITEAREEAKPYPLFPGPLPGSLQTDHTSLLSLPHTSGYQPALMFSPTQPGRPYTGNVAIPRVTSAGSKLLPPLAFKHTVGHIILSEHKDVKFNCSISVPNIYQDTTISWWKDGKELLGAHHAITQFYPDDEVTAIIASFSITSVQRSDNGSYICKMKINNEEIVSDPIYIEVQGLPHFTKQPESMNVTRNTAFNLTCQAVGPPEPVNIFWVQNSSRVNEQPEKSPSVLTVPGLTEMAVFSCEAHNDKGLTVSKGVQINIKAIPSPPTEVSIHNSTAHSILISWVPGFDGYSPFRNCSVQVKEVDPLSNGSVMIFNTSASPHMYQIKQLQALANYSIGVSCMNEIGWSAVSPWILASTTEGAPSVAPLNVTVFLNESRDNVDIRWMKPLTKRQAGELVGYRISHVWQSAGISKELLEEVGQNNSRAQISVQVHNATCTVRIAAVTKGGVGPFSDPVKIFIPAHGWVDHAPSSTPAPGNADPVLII
The assay is described as above. How it is done: as §1, §2

B1: monovalent anti-MerTK antibody MTK-33.11 (antibody, V domains shown)
VH: QVQLVQSGAEVKKPGASVKVSCKASGYTFTSYWMHWVRQAPGQGLEWIGVIDPSDNYINYNQKFQGRVTMTRDTSTSTVYMELSSLRSEDTAVYYCAREAWTRGYFDYWGQGTLVTVSS
VL: DIQMTQSPSSLSASVGDRVTITCQASRSVRNTVAWYQQKPGKAPKLLIYYASNRYTGVPSRFSGSGSGTDFTFTISSLQPEDIATYYCQQDYRSPFTFGQGTKLEIK
Turning to B1, the “Average IC50 (nM) in the presence of huGas6 (huGas6-mediated pAKT reducing activity)” value in assay [1] stood at 17.9 nM. Further, the figures for the Kd in assay [2] and in assay [3] were 2 nM and 3 nM, respectively.

B2: bispecific anti-MerTK MTK-33.11:anti-PDL1 antibody (bispecific antibody, V domains shown)
VH 1: QVQLVQSGAEVKKPGASVKVSCKASGYTFTSYWMHWVRQAPGQGLEWIGVIDPSDNYINYNQKFQGRVTMTRDTSTSTVYMELSSLRSEDTAVYYCAREAWTRGYFDYWGQGTLVTVSS
VL 1: DIQMTQSPSSLSASVGDRVTITCQASRSVRNTVAWYQQKPGKAPKLLIYYASNRYTGVPSRFSGSGSGTDFTFTISSLQPEDIATYYCQQDYRSPFTFGQGTKLEIK
VH 2: not shown
VL 2: not shown
Turning to B2, the “Average IC50 (nM) in the presence of huGas6 (huGas6-mediated pAKT reducing activity)” value in assay [1] came to 9.03 nM. The Kd in assay [2] and in assay [3] was 2 nM throughout.

B3: bivalent anti-MerTK antibody MTK-33.11 (full IgG) (antibody, V domains shown)
VH: QVQLVQSGAEVKKPGASVKVSCKASGYTFTSYWMHWVRQAPGQGLEWIGVIDPSDNYINYNQKFQGRVTMTRDTSTSTVYMELSSLRSEDTAVYYCAREAWTRGYFDYWGQGTLVTVSS
VL: DIQMTQSPSSLSASVGDRVTITCQASRSVRNTVAWYQQKPGKAPKLLIYYASNRYTGVPSRFSGSGSGTDFTFTISSLQPEDIATYYCQQDYRSPFTFGQGTKLEIKR
For the molecule B3, the “Average IC50 (nM) in the presence of huGas6 (huGas6-mediated pAKT reducing activity)” value in assay [1] is 1.25 nM. Further, the Kd in assay [2] and in assay [3] was 2 nM each time.

B4: monovalent anti-MerTK antibody MTK-16.2 (antibody, V domains shown)
VH: QVQLVQSGSELKKPGASVKVSCKASGYTFTNHGMNWVRQAPGQGLEWMGWINTYTGEPTYADDFKGRFVFSLDTSVSTAYLQISSLKAEDTAVYYCARKGVTAARYFDYWGQGTLVTVSS
VL: DIQMTQSPSSLSASVGDRVTITCRASQNVRTAVAWYQQKPGKAPKRLIYLASNRHTGVPSRFSGSGSGTEFTLTISNLQPEDFATYYCLQHWNYPLTFGGGTKLEIK
With B4, the “Average IC50 (nM) in the presence of huGas6 (huGas6-mediated pAKT reducing activity)” value in assay [1] worked out at 15.3 nM. The Kd was 50 nM in assay [2] and 60 nM in assay [3].

B5: bivalent anti-MerTK antibody MTK-16.2 (full IgG) (antibody, V domains shown)
VH: QVQLVQSGSELKKPGASVKVSCKASGYTFTNHGMNWVRQAPGQGLEWMGWINTYTGEPTYADDFKGRFVFSLDTSVSTAYLQISSLKAEDTAVYYCARKGVTAARYFDYWGQGTLVTVSS
VL: DIQMTQSPSSLSASVGDRVTITCRASQNVRTAVAWYQQKPGKAPKRLIYLASNRHTGVPSRFSGSGSGTEFTLTISNLQPEDFATYYCLQHWNYPLTFGGGTKLEIKR
Take B5: the “Average IC50 (nM) in the presence of huGas6 (huGas6-mediated pAKT reducing activity)” value in assay [1] came to 3.22 nM. The Kd in assay [2] is 50 nM; in assay [3], 60 nM.

B6: bispecific anti-MerTK MTK-16.2:anti-PDL1 antibody (bispecific antibody, V domains shown)
VH 1: QVQLVQSGSELKKPGASVKVSCKASGYTFTNHGMNWVRQAPGQGLEWMGWINTYTGEPTYADDFKGRFVFSLDTSVSTAYLQISSLKAEDTAVYYCARKGVTAARYFDYWGQGTLVTVSS
VL 1: DIQMTQSPSSLSASVGDRVTITCRASQNVRTAVAWYQQKPGKAPKRLIYLASNRHTGVPSRFSGSGSGTEFTLTISNLQPEDFATYYCLQHWNYPLTFGGGTKLEIK
VH 2: not shown
VL 2: not shown
Consider B6, for which the “Average IC50 (nM) in the presence of huGas6 (huGas6-mediated pAKT reducing activity)” value in assay [1] amounted to 12.3 nM. The Kd in assay [2] and in assay [3] was 30 nM each time.

By Kd is commonly meant a measure of binding affinity in units of concentration.
